{"source": "patent US20260132392", "about": "“GENE EDITING SYSTEMS COMPRISING REVERSE TRANSCRIPTASES” (Metagenomi, Inc., published 2026)", "binders": {"B1": {"name": "Ec86 wild-type ncRNA (ssRNA)", "RNA": "GGAUGCGCACCCUUAGCGAGAGGUUUAUCAUUAAGGUCAACCUCUGGAUGUUGUUUCGGCAUCCUGCAUUGAAUCUGAGUUACUGUCUGUUUUCCUUGUUGGAACGGAGAGCAUCGCCUGAUGCUCUCCGAGCCAACCAGGAAACCCGUUUUUUCUGACGUAAGGGUGCGCAACUUUC"}}, "molecular_target": "T1, Ec86 retron RT (Escherichia coli, UniProt P23070 P23070:1-320)", "T1 sequence": "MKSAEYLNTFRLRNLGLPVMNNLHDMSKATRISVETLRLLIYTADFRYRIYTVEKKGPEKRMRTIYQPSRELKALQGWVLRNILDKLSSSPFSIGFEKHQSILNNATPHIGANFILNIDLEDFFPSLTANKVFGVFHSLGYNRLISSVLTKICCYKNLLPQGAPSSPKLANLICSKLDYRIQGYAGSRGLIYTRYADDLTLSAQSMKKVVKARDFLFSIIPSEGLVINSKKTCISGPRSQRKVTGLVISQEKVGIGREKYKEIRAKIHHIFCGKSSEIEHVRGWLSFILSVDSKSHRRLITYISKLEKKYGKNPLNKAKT", "experiment": "msdDNA qPCR, 37 C 2 h", "settings": "tags: N-terminal Strep tag", "experimental": "The Ec86 RT was co-expressed with the ncRNA substrate (final 100 nM) in a cell-free expression system) supplemented with dNTPs (final 0.3 mM). Expression constructs were codon-optimized for E. coli and contained an N-terminal single Strep tag. After incubation for 2 h at 37° C., the reaction was quenched by heat denaturation at 95° C. for 2 min, followed by treatment by RNase A for 30 min at 37° C. […] The resulting reverse transcription products, herein referred to as msdDNA, were diluted prior to qPCR to ensure msdDNA concentrations were within the linear range of detection. The amount of msdDNA was quantified by extrapolating values from a standard curve generated with a DNA template of known concentrations."}
{"binder": "B1", "values": [{"measurement": "binding result", "result": "binds"}]}
